The values that follow come from PMC11538491.

Assay [1] concerns the target parvovirus B19 (B19V) virion purified from infected patient plasma, genotype 1 (human parvovirus B19). Description: cryo-EM structure.
For assay [2] the target is unchanged. Briefly: cryo-EM structure. The source holds these as a separate data set.

Read-outs that look alike come from different tables or passages of the source.

Regarding “inter-alpha-trypsin inhibitor heavy chain 4 (ITIH4) from human plasma, bound to the B19V capsid (natural protein)”, in assay [1], the occupancy of the binding sites was found to be 19.4% and the stoichiometry N (molecules per capsid) amounted to 12.

B1: serpinA3 from human plasma, bound to the B19V capsid (natural protein)
chain: HPNSPLDEENLTQENQDRGTHVDLGLASANVDFAFSLYKQLVLKAPDKNVIFSPLSISTALAFLSLGAHNTTLTEILKGLKFNLTETSEAEIHQSFQHLLRTLNQSSDELQLSMGNAMFVKEQLSLLDRFTEDAKRLYGSEAFATDFQDSAAAKKLINDYVKNGTRGKITDLIKDLDSQTMMVLVNYIFFKAKWEMPFDPQDTHQSRFYLSKKKWVMVPMMSLHHLTIPYFRDEELSCTVVELKYTGNASALFILPDQDKMEEVEAMLLPETLKRWRDSLEFREIGELYLPKFSISRDYNLNDILLQLGIEEAFTSKADLSGITGARNLAVSQVVHKAVLDVFEEGTEASAATAVKITLLSALVETRTIVRFNRPFLMIIVPTDTQNIFFMSKVTNPKQA
modifications: five extra densities at the predicted N-glycosylation sites (positions not given)
As to B1, in assay [2], the occupancy of the binding sites was 38.3%, the stoichiometry N (molecules per capsid) was determined as 23 and the stoichiometry N (sites occupied per capsid (of 30)) was found to be 22.
